Results on two molecules are retold here after patent US20230095979A1 (NANTONG YICHEN BIOPHARMA, published 2023).

Assay [1] addresses T1, IL1β WT with 6xHis tag (human, UniProt P01584 117-269).
T1 construct: Expressed in E. coli from pET28a with a C-terminal 6xHis tag; about 19 kDa on SDS-PAGE; also called WT IL1β; wild-type IL1β
As to the kind of experiment: monoclonal phage panning on coated antigen; ratio of output CFU with and without UV crosslinking.

Assay [2] addresses IL1β 64pBpa mutant (human) (UniProt P01584). The description is as above.
The target is the same in assay [3]. As to the kind of experiment: monoclonal phage panning on coated antigen, no UV, competitive/low-pH washes, trypsin release, colony count.
Assay [4] shares this target. As to the kind of experiment: monoclonal phage panning on coated antigen, UV 365 nm, competitive/low-pH washes, trypsin release, colony count.
Assay [5] deals with T2, hC5a with 6xHis tag (human, UniProt P01031 678-751).
T2 construct: also called WT hC5a; WT-hC5a
T2 sequence: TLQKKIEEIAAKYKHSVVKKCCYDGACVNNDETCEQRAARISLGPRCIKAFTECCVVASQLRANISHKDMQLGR
Briefly: monoclonal phage panning on coated antigen; ratio of output CFU with and without UV crosslinking.

Assay [6] addresses T3, Val18pBpa mutant of hC5a (human, UniProt P01031 678-751, not fully specified; p-benzoyl-L-phenylalanine (pBpa) at 18).
T3 construct: X stands for pBpa
T3 chain: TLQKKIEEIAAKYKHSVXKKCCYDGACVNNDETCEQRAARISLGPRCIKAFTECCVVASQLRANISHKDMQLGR
The description is as above.

B1: 64UV63 phage (scFv)
scFv: ELTLTQSPAFMSATPGDKVNISCKGSQDIDDNMNWYQQKPGEAIIFIIQEATTLVPGIPPRFSGSGYGTDFTLTINNIESEDAAYYFCLQHDNFPPYTFGQGTKLEIKGGSSRSSSSGGGGSGGGGQVQLQESGGGLVQPGGSLRLSCAASGFTFSSYEMNWVRQAPGKGLEWVSYISSSGSTIYYADSVKGRFTISRDNAKNSLYLQMNSLRAEDTAVYYCARDLGGFDPWGQGTLVTASS
notes: also called 64UV63 scFv
As for B1, the “UV-treated output CFU/Non-UV-treated output CFU” value in assay [1] was 1.1 ratio; in assay [2], 6.4. This molecule also showed a Non-UV-treated output CFU in assay [3] of 22 CFU. The molecule further returned a UV-treated output CFU in assay [4] of 140 CFU.

B2: hC5a-35 phage (scFv)
scFv: DIQMTQSPSSLSASVGDRVTITCQASQDISNYLNWYQQKPGKAPKLLIYDASNLETGVPSRFSGSGSGTDFTFTIRSLQPEDIATYYCQQYDNLPPWTFGQGTKVEIKGGSSRSSSSGGGGSGGGGEVQLVESGGGLVEPGRSLRLSCTASGYTFGDYAMSWFRQAPGKDLEWVGFIRSKAYGGTTEYAASVKGRFTISRDDSKSIAYLQMNSLKTEDTAVYYCTRAGNDDQYFDYWGQGTQVTVSS
notes: also called hC5a-35scfv; hC5a-35 scfv
For the molecule B2, the results for the “UV-treated output CFU/Non-UV-treated output CFU” value in assay [5] and in assay [6] were 1.1 ratio and 3.3 ratio, respectively.
